The values that follow come from the Immune Epitope Database (IEDB).

Common to all, as to test: IEDB peptide-MHC binding, purified MHC/competitive/radioactivity; filed as Kd, often an IC50 or EC50 that approximates it; ≥ and ≤ were set here for values at or beyond the usual limits of such assays
Assay [1] deals with HLA-A*03:01.
Assay [2] concerns the target HLA-A*11:01.
In assay [3] the target is HLA-A*31:01.
Assay [4] deals with HLA-A*33:01.
Assay [5] concerns the target HLA-A*68:01.
Assay [6] addresses HLA-A*02:06. The following applies: source organism: Dengue virus 2 16681-PDK53.
Assay [7] addresses HLA-A*02:03. The following applies: source organism: Dengue virus 4 Philippines/H241/1956.
Where [8] appears, read: source organism: Vaccinia virus WR.
Where [9] appears, read: source organism: SARS coronavirus Tor2.
[10] abbreviates: source organism: Dengue virus 1 Brazil/97-11/1997.
[11] abbreviates: source organism: Lassa virus Josiah.
Setting [12] is: source organism: Dengue virus 2 Jamaica/1409/1983.
[13] abbreviates: source organism: Mammarenavirus machupoense.

For orientation: Kd means the equilibrium constant for the complex coming apart. For LSKIPYLRNY, the Kd was 6.94 µM in assay [1] (setting [8]); 2.61 µM in assay [2] (setting [8]); 0.32 µM in assay [3] (setting [8]); 9.09 µM in assay [4] (setting [8]); 9.65 µM in assay [5] (setting [8]).
For IFPANINDK, the Kd in assay [1] (setting [8]) turned out to be 2.24 µM; in assay [2] (setting [8]) it was 1.09 µM; in assay [3] (setting [8]), 3.58 µM; in assay [4] (setting [8]), 12.5 µM; in assay [5] (setting [8]) it was 1.2 µM.
SLLSLREVK: the Kd in assay [1] (setting [9]) stood at 0.249 µM; in assay [2] (setting [9]), 0.0212 µM; in assay [3] (setting [9]), 0.187 µM; in assay [4] (setting [9]) it was 8.14 µM; in assay [5] (setting [9]) it was 1.19 µM.
For VTNPAVLRK, the Kd in assay [1] (setting [10]) was 0.00428 µM; in assay [2] (setting [10]), 0.0165 µM.
For the sequence TLWEGSPGK, the Kd in assay [1] (setting [10]) is 0.328 µM.
For the sequence NMTSRMLLNR, the Kd was 12 µM in assay [3] (setting [10]), 0.0737 µM in assay [4] (setting [10]) and 0.47 µM in assay [5] (setting [10]).
DTQMRTPLHK: the Kd was 4.16 µM in assay [1] (setting [8]); 0.078 µM in assay [2] (setting [8]); at least 52.1 µM in assay [3] (setting [8]); 12.5 µM in assay [4] (setting [8]); 1.48 µM in assay [5] (setting [8]).
Consider RSLQTIASKK, for which the Kd was 0.0503 µM in assay [1] (setting [8]); 0.0225 µM in assay [2] (setting [8]); 0.183 µM in assay [3] (setting [8]); at least 70 µM in assay [4] (setting [8]); 1.17 µM in assay [5] (setting [8]).
Take LQMENKAWL: the Kd in assay [6] was 0.0228 µM.
On to HIVGKSCPK, for which the equilibrium dissociation constant (Kd) in assay [1] (setting [11]) is 11 µM; in assay [2] (setting [11]) it was 15 µM; in assay [3] (setting [11]), at least 45 µM; in assay [4] (setting [11]), at least 24.2 µM; in assay [5] (setting [11]), at least 26.7 µM.
TTFVTPMLR: the Kd was determined as 0.102 µM in assay [1] (setting [12]); 0.0792 µM in assay [2] (setting [12]); 0.0165 µM in assay [3] (setting [12]); 0.00567 µM in assay [4] (setting [12]); 0.00377 µM in assay [5] (setting [12]).
As for MSHLKVALY, the dissociation constant (Kd) in assay [1] (setting [8]) was determined as 0.32 µM; in assay [2] (setting [8]), 1.69 µM; in assay [3] (setting [8]), 0.703 µM; in assay [4] (setting [8]) it was 18.1 µM; in assay [5] (setting [8]), 0.147 µM.
Take SLELIIIHTK: the Kd was 16.2 µM in assay [1] (setting [8]); 1.3 µM in assay [2] (setting [8]); 0.13 µM in assay [3] (setting [8]); at least 53.4 µM in assay [4] (setting [8]); 8.05 µM in assay [5] (setting [8]).
Turning to RLASAILNA, the Kd in assay [7] was 0.0228 µM.
For the sequence VSQLAKRFSK, in assay [2] (source organism: Dengue virus 1 Nauru/West Pac/1974), the Kd was 0.126 µM.
For VQTAPGTFK, in assay [2] (source organism: Dengue virus 1 Singapore/S275/1990), the Kd was 0.129 µM.
Take HMVRCCKVY: the Kd in assay [1] (setting [8]) is 0.399 µM; in assay [2] (setting [8]) it was at least 40 µM; in assay [3] (setting [8]), 10.7 µM; in assay [4] (setting [8]) it was at least 45.8 µM; in assay [5] (setting [8]) it was 0.78 µM.
For ILKINSVKYY, in that order: 17.2 µM, 13.5 µM, 4.91 µM, 11.2 µM and 1.42 µM.
SMFWDGMDY: the Kd in assay [1] (setting [8]) was determined as 0.00102 µM; in assay [2] (setting [8]), 0.000823 µM; in assay [3] (setting [8]), 0.124 µM; in assay [4] (setting [8]), 10.4 µM; in assay [5] (setting [8]), 0.0119 µM.
Turning to WVFGSTMNNK, the Kd was 0.197 µM in assay [1] (setting [9]); 0.208 µM in assay [2] (setting [9]); 5.95 µM in assay [3] (setting [9]); at least 70 µM in assay [4] (setting [9]); 0.00324 µM in assay [5] (setting [9]).
For QLEQPYVFIK, in that order: 6.68 µM, 2.99 µM, 11.3 µM, at least 70 µM and 17.2 µM.
As to ISSRVDRYSK, the Kd in assay [1] (setting [8]) was at least 27.3 µM; in assay [2] (setting [8]), 0.287 µM; in assay [3] (setting [8]), 7.2 µM; in assay [4] (setting [8]) it was at least 70 µM; in assay [5] (setting [8]), 0.861 µM.
For HLYLQYIRK, the equilibrium dissociation constant (Kd) was found to be 0.000172 µM in assay [1] (setting [9]); 0.0148 µM in assay [2] (setting [9]); 0.516 µM in assay [3] (setting [9]); 6.9 µM in assay [4] (setting [9]); 1.61 µM in assay [5] (setting [9]).
Regarding LMAFANQIHH, the Kd in assay [1] (setting [13]) was 0.931 µM; in assay [2] (setting [13]) it was 15.3 µM; in assay [3] (setting [13]), at least 22.3 µM; in assay [4] (setting [13]), at least 70 µM; in assay [5] (setting [13]), at least 47.3 µM.
As for FIDVHIPKFK, the dissociation constant (Kd) amounted to 1.06 µM in assay [1] (setting [8]); 0.179 µM in assay [2] (setting [8]); 2.7 µM in assay [3] (setting [8]); 13.1 µM in assay [4] (setting [8]); 0.108 µM in assay [5] (setting [8]).
